Experimental data from PMC5477534.

System: lac repressor (LacI)
Assay: SFM imaging
Conditions: streptavidin bound, SFM: 7.5 nM LacI, about 30 min incubation, 100 uM NTPs for 60 s, EDTA quench, poly-L-ornithine-coated mica, buffer, salt, pH and temperature not in the …

Substance	binding signal (% looped molecules) (7.5 nM LacI, with transcription (NTP), 3'/downstream-end biotin)	binding signal (% operator occupancy) (7.5 nM LacI, without NTP (drops about 20% with transcription), 3'/downstream-end biotin)	binding signal (% looped molecules) (7.5 nM LacI, without transcription, 3'/downstream-end biotin)	binding signal (% looped molecules) (LacI, with transcription (NTP), downstream-end biotin)	binding signal (% looped molecules) (LacI, without transcription, downstream-end biotin)
Os-400-O1 SFM template	50	> 90	34	–	–
O2-400-O1 SFM template	–	–	–	14	12
